According to patent US11110171B2, “PD-1 related cancer therapy” (New York University, priority 2017, dated 2021):

Target: T1, SHP2PTP (GST tagged SHP2 catalytic domain) (Homo sapiens, UniProt Q06124)
T1 construct: a fixed amount of purified GST-WT SHP2 catalytic domain (0.2 ug) was incubated with variable concentrations; purchased Abcam 42578
T1 sequence (Q06124 247-517 limits assumed): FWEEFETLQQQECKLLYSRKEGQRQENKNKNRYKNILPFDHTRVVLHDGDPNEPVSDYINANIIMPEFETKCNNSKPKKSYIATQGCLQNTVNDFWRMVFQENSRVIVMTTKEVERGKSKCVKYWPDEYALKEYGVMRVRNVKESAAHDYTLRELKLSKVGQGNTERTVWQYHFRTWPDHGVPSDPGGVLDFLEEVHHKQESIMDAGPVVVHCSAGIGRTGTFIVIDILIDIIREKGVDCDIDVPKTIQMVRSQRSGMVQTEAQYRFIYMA
Experiment: Malachite Green phosphatase assay of SHP2 catalytic domain with phosphotyrosyl peptide substrates
Format: biochemical
Conditions: for increase of Km of SHP2-mediated dephosphorylation in the presence of SAP: SAP 1 uM or 10 uM
Description: FIG. 4. SAP inhibits SHP2 activity. […] At this time, the cells were harvested, and analyzed by immunoblotting, as indicated. (b) Jurkat T cells, transfected with siRNA for SAP (SAP KD) and non-targeting control (Control), were treated with pervanadate to induce maximal phosphorylation, followed by five serial washes, lysis and diafiltration to remove the drug and to exchange the buffer to a phosphatase-compatible buffer. SHP2^PTP (GST tagged SHP2 catalytic domain) was then added to the cell lysates for one hour, at the indicated concentrations, followed by immunoblotting with anti-phosphotyrosine antibody (4G10). (c) Densitometry values of all the phophotyrosine containing proteins shown at b. All values are relative to the baseline condition (without SHP2^PTP). […] (e-g) Enzymatic activity of SHP2^PTP was measured using a Malachite Green assay, with p60-SRC (e), SLAMF5 Y279 (f), CD3 Y142 (g), CD28 Y172 (h), and CD28 Y190 (i) peptides as substrates. Substrate titrations of SHP2P (dark circles) at baseline (control), or in the presence of SAP 1 uM (white circles) or SAP 10 uM (crossed circles) are shown. Curves are fitted using the Michelis-Menten equation and derived Km values are shown. The data points represent the mean of three measurements. (j) A diagram describing the shielding model. Data are represented as mean±SEM. * or ** represent significant differences between the denoted group and the anti-CD3 treated cells in a, or between SAP deficient cells and control cells in e; * <0.05, ** P<0.01, n=4, unpaired t test.
First, SAP could bind SHP2 and directly block the SHP2 catalytic site, or alternatively, SAP might not bind to SHP2, but rather could bind to its substrates and thereby block the interaction between SHP2 and its enzymatic substrates. […] To test the effect of SAP on SHP2 mediated dephosphorylation events, we measured SHP2-mediated dephosphorylation of p60-SRC Y416 (FIG. 4e), SLAMF5 Y279 (FIG. 4f), and CD3 Y142 (FIG. 4g) phosphotyrosyl peptides by Malachite Green assays. […]
To determine kinetic parameters, a fixed amount of purified GST-WT SHP2 catalytic domain was incubated with variable concentrations of substrates in (GenScript) in PTP assay buffer (Phosphatase assay kit; Upstate 17-313). […] release was quantified by adding Malachite Green (Malachite Green phosphatase detection kit; R&D DY996).
293T cells were transfected with pMSCV-SHP2, pMSCV empty vector, PD1-WT-GFP, PD1-Y223F-GFP or PD1-Y248F-GFP for 48 hours, followed by pervanadate treatment and immunoprecipitation using anti-GFP mAb-Agarose. The anti-GFP mAb-Agarose beads that were used for immunoprecipitation were then used for a pull-down of the SHP2/null transfected cells, and phosphatase activity on the beads was assessed using pNPP (Sigma). […]

B1: SAP: Recombinant human SAP (His tagged), signaling lymphocytic activation molecule-associated protein, purchased from Abcam (protein, UniProt O60880 1-128, looked up)
SH2 domain-containing protein …: MDAVAVYHGKISRETGEKLLLATGLDGSYLLRDSESVPGVYCLCVLYHGYIYTYRVSQTETGSWSAETAPGVHKRYFRKIKNLISAFQKPDQGIVIPLQYPVEKKSSARSTQGTTGIREDPDVCLKAP
modifications: His tag
- Vmax of SHP2-mediated dephosphorylation in the presence of SAP (all three phosphotyrosyl peptides (p60-SRC, SLAMF5, CD3)): unaffected
- increase of Km of SHP2-mediated dephosphorylation in the presence of SAP (substrate phosphorylated CD3 Y142 peptide): 2-3 fold
- increase of Km of SHP2-mediated dephosphorylation in the presence of SAP (substrate phosphorylated SLAMF5 Y279 peptide): 2-3 fold
- inhibition of SHP2-mediated dephosphorylation of the tail of CD28 (substrates CD28 Y173 and CD28 Y190 peptides): predominantly inhibited dephosphorylation of CD28 Y173 over CD28 Y190
